Data as given in patent US20060094672A1 (University of Texas, published 2006).
Bridge positions count the residues as written; N and C are the ends. Square brackets hold non-standard residues; d marks the D form. Ends that are not written are not given here. pY = N[C@@H](Cc1ccc(OP(=O)(O)O)cc1)C(=O)O

Experiments:
[1] = target: T1, prohibitin (B cell receptor associated protein; prohibitin receptor protein complex) (mouse); assay: immunoprecipitation from mouse adipose tissue extract with peptide-(KLAKLAK)2 conjugates, SDS-PAGE (data not shown)
T1 sequence (P67778 2-272, looked up): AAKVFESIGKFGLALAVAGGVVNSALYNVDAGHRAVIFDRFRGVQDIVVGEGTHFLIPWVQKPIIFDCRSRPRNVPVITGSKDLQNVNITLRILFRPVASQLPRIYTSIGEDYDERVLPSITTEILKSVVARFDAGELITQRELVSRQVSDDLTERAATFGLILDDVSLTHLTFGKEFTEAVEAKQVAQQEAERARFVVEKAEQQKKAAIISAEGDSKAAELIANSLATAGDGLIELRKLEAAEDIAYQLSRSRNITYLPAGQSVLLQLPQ

[2] = target: GST-β3cyto (GST fusion protein of the integrin β3 cytoplasmic domain) (UniProt P05106); assay: phage binding to coated microtiter wells; colonies from β3-GST wells divided by colonies from BSA wells
[3] = target: GST-β3cyto (GST fusion protein of the integrin β3 cytoplasmic domain) (UniProt P05106); assay: phage binding to coated microtiter wells; colonies from β3-GST wells divided by colonies from GST wells
[4] = target: Aminopeptidase A (APA, EC 3.4.11.7) (UniProt Q07075 1-957, limits assumed); assay: cell-based or functional assay
[5] = target: GST-β5cyto (GST fusion protein of the integrin β5 cytoplasmic domain) (UniProt P18084); assay: phage binding to coated microtiter wells; colonies from β5-GST wells divided by colonies from BSA wells
[6] = target: GST-β5cyto (GST fusion protein of the integrin β5 cytoplasmic domain) (UniProt P18084); assay: phage binding to coated microtiter wells; colonies from β5-GST wells divided by colonies from GST wells
[7] = target: GST-β5cyto (GST fusion protein of the integrin β5 cytoplasmic domain) (UniProt P18084); assay: phage binding to coated wells; β5 colonies divided by BSA colonies
[8] = target: GST-β5cyto (GST fusion protein of the integrin β5 cytoplasmic domain) (UniProt P18084); assay: phage binding to coated wells; β5 colonies divided by GST colonies
[9] = target: GST-β5cyto (GST fusion protein of the integrin β5 cytoplasmic domain) (UniProt P18084); assay: phage binding to β5 cytoplasmic domain wells; colonies with Fyn-phosphorylated phage divided by colonies with unphosphorylated phage
[10] = target: GST-β3cyto (GST fusion protein of the integrin β3 cytoplasmic domain) (UniProt P05106); assay: phage binding to coated wells; β3 colonies divided by BSA colonies
[11] = target: GST-β3cyto (GST fusion protein of the integrin β3 cytoplasmic domain) (UniProt P05106); assay: phage binding to coated wells; β3 colonies divided by GST colonies
[12] = target: GST-β3cyto (GST fusion protein of the integrin β3 cytoplasmic domain) (UniProt P05106); assay: phage binding to β3 cytoplasmic domain wells; colonies with Fyn-phosphorylated phage divided by colonies with unphosphorylated phage

Chain of GST-β3cyto (GST fusion protein of the integrin β3 cytoplasmic domain) (P05106 742-788): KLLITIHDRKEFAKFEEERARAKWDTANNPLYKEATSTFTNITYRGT
Chain of GST-β5cyto (GST fusion protein of the integrin β5 cytoplasmic domain) (P18084 743-799): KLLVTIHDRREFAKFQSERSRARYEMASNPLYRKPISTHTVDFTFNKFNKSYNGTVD
Chain of Aminopeptidase A (APA, EC 3.4.11.7) (Q07075 whole entry, the tested form may be a part): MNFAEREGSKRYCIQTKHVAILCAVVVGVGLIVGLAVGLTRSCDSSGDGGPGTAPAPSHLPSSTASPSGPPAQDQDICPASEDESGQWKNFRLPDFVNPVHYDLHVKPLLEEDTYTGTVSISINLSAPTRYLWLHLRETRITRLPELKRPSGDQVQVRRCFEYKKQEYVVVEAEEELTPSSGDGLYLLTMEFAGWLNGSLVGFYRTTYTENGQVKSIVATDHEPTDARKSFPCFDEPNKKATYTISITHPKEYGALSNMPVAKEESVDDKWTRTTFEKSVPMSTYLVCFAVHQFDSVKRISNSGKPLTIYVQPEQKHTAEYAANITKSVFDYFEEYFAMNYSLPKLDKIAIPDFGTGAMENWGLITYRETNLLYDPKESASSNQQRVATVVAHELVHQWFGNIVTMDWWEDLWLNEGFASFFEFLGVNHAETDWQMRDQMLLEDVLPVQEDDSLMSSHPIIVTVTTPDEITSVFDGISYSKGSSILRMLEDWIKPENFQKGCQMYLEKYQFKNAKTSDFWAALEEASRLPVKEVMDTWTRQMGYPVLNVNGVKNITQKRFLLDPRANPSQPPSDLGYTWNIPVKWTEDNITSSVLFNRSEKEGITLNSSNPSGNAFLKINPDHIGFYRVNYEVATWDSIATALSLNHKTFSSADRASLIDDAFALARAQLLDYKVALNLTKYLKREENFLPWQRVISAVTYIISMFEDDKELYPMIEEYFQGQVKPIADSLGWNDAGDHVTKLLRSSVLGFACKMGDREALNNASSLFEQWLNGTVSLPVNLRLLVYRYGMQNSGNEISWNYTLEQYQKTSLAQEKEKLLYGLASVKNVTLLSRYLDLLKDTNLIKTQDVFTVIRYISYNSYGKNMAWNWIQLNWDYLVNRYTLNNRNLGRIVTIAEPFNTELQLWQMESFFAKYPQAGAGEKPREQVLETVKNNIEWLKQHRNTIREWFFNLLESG

B1: … (SEQ ID NO:22) conjugated to (KLAKLAK)2 (SEQ ID NO:1) (peptide)
peptide: CKGGRAKDCGG[dK][dL][dA][dK][dL][dA][dK][dK][dL][dA][dK][dL][dA][dK]
modifications: disulfide 1-9
How did the fold enrichment in the … precipitated fraction compared to the CARAC precipitated fraction [1] turn out when B1 was run?
The fold enrichment in the … precipitated fraction compared to the CARAC precipitated fraction was > 10 >fold.

B2: phage displaying … (SEQ ID NO:35) (peptide)
peptide: AGWLYMSWK
Which results are given for B2?
β3/BSA Ratio [2]: 2.4; β3/GST Ratio [3]: 1.8

B3: soluble CPRECESIC (SEQ ID NO:56) peptide (peptide)
peptide: CPRECESIC
modifications: disulfide (positions not given here); not fully specified; also: mix of six MS peaks: possibly different disulfide positions and dimers
B3 was tested. Which “IC50 for inhibition of APA enzyme activity (α-glutamyl-p-nitroanilide, SK-RC-49/APA cells)” value [4] did it give?
The value was 800 µM.

B4: phage displaying … (SEQ ID NO:42) (peptide)
peptide: CKLWQEDGY
modifications: also: displayed on phage pIII
B4 was tested. Which β5/BSA Ratio [5] did it give?
Its β5/BSA Ratio is 665.

And the β5/GST Ratio [6]?
The β5/GST Ratio was 1.8.

B5: Fyn-phosphorylated phage displaying … (SEQ ID NO:54) (peptide)
peptide: TLRK[pY]FHSS
modifications: also: displayed on phage pIII
What does the source list for B5?
β3 or β5/BSA [7]: 15.2; β3 or β5/GST [8]: 3.8; Phos/Unphos [9]: 3.8

B6: Fyn-phosphorylated phage displaying … (SEQ ID NO:50) (peptide)
peptide: RAIL[pY]RLAN
modifications: also: displayed on phage pIII
For B6, which β3 or β5/BSA [10] is on record?
Its β3 or β5/BSA is 20.

What about the β3 or β5/GST [11] of the same binder?
The β3 or β5/GST was 1.3.

And the Phos/Unphos [12]?
Its Phos/Unphos is 2.8.

B7: Fyn-phosphorylated phage displaying … (SEQ ID NO:49) (peptide)
peptide: GGGS[pY]RHVE
modifications: also: displayed on phage pIII
With B7 as the binder, how does the β3 or β5/BSA [10] read?
The β3 or β5/BSA was 5.3.

And the β3 or β5/GST [11]?
The β3 or β5/GST was 1.5.

What about the Phos/Unphos [12] of the same binder?
Its Phos/Unphos is 13.2.

B8: Fyn-phosphorylated phage displaying … (SEQ ID NO:51) (peptide)
peptide: MLLG[pY]RFEK
modifications: also: displayed on phage pIII
How did the β3 or β5/BSA [10] turn out when B8 was run?
The β3 or β5/BSA was 2.7.

And the β3 or β5/GST [11]?
The β3 or β5/GST was 3.5.

What about the Phos/Unphos [12] of the same binder?
The Phos/Unphos was 2.5.

B9: Fyn-phosphorylated phage displaying … (SEQ ID NO:52) (peptide)
peptide: TMLR[pY]TVRL
modifications: also: displayed on phage pIII
What does the source list for B9?
β3 or β5/BSA [7]: 2.2; β3 or β5/GST [8]: 3.4; Phos/Unphos [9]: 14.3

B10: Fyn-phosphorylated phage displaying … (SEQ ID NO:53) (peptide)
peptide: TMLR[pY]FMFP
modifications: also: displayed on phage pIII
What does the source list for B10?
β3 or β5/BSA [7]: 3.8; β3 or β5/GST [8]: 2.3; Phos/Unphos [9]: 4.2
